Test results: publication PMC2820527

Target: SmTK4-SH2SH2 (tandem SH2-domain of SmTK4 as a fusion protein with the Gal4-BD) (Schistosoma mansoni) (UniProt Q8WPV5)
Test: two-hybrid; beta-Gal liquid assay (ONPG) in AH109, relative binding strength; bait plasmid co-expresses the SmTK3 TK-domain (additional phosphorylation)

SmTK6 prey clone (novel schistosome Src kinase SmTK6, partial, Gal4-AD fusion) (from UniProt C5J9R9 1-565) (domain or fragment)
fold increase of the interaction (β-Gal liquid assay) with the SmTK3 TK-domain against without it: 5 fold
